Measured values from PMC5828407 (Veterinary Research, 2018).

B1: GST-tagged FaeG fusion protein of F4ad (natural protein)
chain: WMTGDFNGSVDIGGSITADDYRQKWEWKVGTGLNGFGNVLNDLTNGGTKLTITVTGNKPILLGRTKEAFATPVTSGVDGIPHIAFTDYEGASVELRNPDGETEKGLAYFVLPMKNAEGTKVGSVKVNASYAGALGRGGVTSADGELMSLFAEGSHAIFYGGLPTNVKNSELKGGSAAAARTELFGSLSKNDILGQIQRVNANITSLVNVPGSFNENMAYTDGSVVSVAYALGIANGQTIEATFNQAVTTSTQWSAPLNVAITYY
B2: porcine aminopeptidase N (APN), His-tagged whole protein (receptor)
chain: MAKGFYISKALGILGILLGVAAVATIIALSVVYAQEKNKNAEHVPQAPTSPTITTTAAITLDQSKPWNRYRLPTTLLPDSYNVTLRPYLTPNADGLYIFKGKSIVRLLCQEPTDVIIIHSKKLNYTTQGHMVVLRGVGDSQVPEIDRTELVELTEYLVVHLKGSLQPGHMYEMESEFQGELADDLAGFYRSEYMEGNVKKVLATTQMQSTDARKSFPCFDEPAMKATFNITLIHPNNLTALSNMPPKGSSTPLAEDPNWSVTEFETTPVMSTYLLAYIVSEFQSVNETAQNGVLIRIWARPNAIAEGHGMYALNVTGPILNFFANHYNTSYPLPKSDQIALPDFNAGAMENWGLVTYRENALLFDPQSSSISNKERVVTVIAHELAHQWFGNLVTLAWWNDLWLNEGFASYVEYLGADHAEPTWNLKDLIVPGDVYRVMAVDALASSHPLTTPAEEVNTPAQISEMFDSISYSKGASVIRMLSNFLTEDLFKEGLASYLHAFAYQNTTYLDLWEHLQKAVDAQTSIRLPDTVRAIMDRWTLQMGFPVITVDTKTGNISQKHFLLDSESNVTRSSAFDYLWIVPISSIKNGVMQDHYWLRDVSQAQNDLFKTASDDWVLLNVNVTGYFQVNYDEDNWRMIQHQLQTNLSVIPVINRAQVIYDSFNLATAHMVPVTLALDNTLFLNGEKEYMPWQAALSSLSYFSLMFDRSEVYGPMKKYLRKQVEPLFQHFETLTKNWTERPENLMDQYSEINAISTACSNGLPQCENLAKTLFDQWMSDPENNPIHPNLRSTIYCNAIAQGGQDQWDFAWGQLQQAQLVNEADKLRSALACSNEVWLLNRYLGYTLNPDLIRKQDATSTINSIASNVIGQPLAWDFVQSNWKKLFQDYGGGSFSFSNLIQGVTRRFSSEFELQQLEQFKKNNMDVGFGSGTRALEQALEKTKANIKWVKENKEVVLNWFIEHS
B3: GST-tagged FaeG fusion protein of F4ab (natural protein)
chain: WMTGDFNGSVDIGGSITADDYRQKWEWKVGTGLNGFGNVLNDLTNGGTKLTITVTGNKPILLGRTKEAFATPVSGGVDGIPQIAFTDYEGASVKLRNTDGETNKGLAYFVLPMKNAEGTKVGSVKVNASYAGVFGKGGVTSADGELFSLFADGLRAIFYGGLTTTVSGAALTSGSAAAARTELFGSLSRNDILGQIQRVNANITSLVDVAGSYREDMEYTDGTVVSAAYALGIANGQTIEATFNQAVTTSTQWSAPLNVAITYY

What was measured:
Conditions in all cases: both partners purified
[1] = molecular target: B2; test: ELISA; APN protein coated on plates, incubated with FaeG peptides, fusion FaeG proteins or F4 fimbriae; absorbance at 450 nm
[2] = molecular target: T1, APN∆1 (401–963 AA) (porcine, UniProt P15145 401-963); test: ELISA; indirect ELISA: APN and its five truncated proteins coated at 100 μg/mL in carbonate-bicarbonate buffer pH 9.6, incubated with 100 μg/mL FaeG fusion protein, detected with anti-F4 monoclonal antibody
T1 sequence: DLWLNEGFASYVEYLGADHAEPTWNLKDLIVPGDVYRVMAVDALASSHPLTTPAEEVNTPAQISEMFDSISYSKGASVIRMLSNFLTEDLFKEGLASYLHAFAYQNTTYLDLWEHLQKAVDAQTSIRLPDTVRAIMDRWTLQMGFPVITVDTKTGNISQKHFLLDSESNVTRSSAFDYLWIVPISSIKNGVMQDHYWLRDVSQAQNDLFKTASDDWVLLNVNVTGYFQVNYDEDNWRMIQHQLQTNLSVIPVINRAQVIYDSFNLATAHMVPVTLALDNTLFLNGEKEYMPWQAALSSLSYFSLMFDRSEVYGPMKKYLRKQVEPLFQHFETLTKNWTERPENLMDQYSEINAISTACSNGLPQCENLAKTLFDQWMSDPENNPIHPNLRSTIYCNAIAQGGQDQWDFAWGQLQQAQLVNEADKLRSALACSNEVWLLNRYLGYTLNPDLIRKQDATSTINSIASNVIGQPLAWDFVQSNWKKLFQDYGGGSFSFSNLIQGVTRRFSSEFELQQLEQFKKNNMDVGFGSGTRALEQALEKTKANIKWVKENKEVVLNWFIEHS

[3] = molecular target: T2, APN∆5 (332–963 AA) (porcine, UniProt P15145 332-963); test: as above
T2 sequence: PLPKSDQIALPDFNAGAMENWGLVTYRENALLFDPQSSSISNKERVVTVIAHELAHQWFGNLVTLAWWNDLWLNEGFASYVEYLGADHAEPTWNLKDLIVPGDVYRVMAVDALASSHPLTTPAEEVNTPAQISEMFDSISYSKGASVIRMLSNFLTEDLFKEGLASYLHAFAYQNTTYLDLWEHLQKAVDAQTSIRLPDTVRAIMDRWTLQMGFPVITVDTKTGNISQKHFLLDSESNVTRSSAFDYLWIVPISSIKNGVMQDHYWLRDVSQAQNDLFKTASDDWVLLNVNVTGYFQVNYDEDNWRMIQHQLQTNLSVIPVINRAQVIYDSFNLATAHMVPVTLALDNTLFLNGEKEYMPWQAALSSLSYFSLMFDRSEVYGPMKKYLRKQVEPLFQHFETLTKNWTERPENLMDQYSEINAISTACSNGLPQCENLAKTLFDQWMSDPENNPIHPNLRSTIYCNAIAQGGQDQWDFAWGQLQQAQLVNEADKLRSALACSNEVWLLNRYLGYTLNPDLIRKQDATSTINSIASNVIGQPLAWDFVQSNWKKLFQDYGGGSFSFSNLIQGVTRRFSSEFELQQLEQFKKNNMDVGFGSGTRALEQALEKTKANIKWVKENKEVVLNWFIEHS

[4] = molecular target: GST-tagged FaeG fusion protein of F4ac (Escherichia coli, UniProt P14190 22-283); test: ELISA; APN protein coated on plates, incubated with FaeG peptides, fusion FaeG proteins or F4 fimbriae; absorbance at 450 nm

| Binder | binding result [1] | binding result [2] | binding result [3] | binding result [4] |
| --- | --- | --- | --- | --- |
| B1 | binds | binds | binds | – |
| B2 | – | – | – | binds |
| B3 | binds | binds | binds | – |
